Assay results from the nanobody polyreactivity screen of Harvey et al. (2022).

Experiment: yeast display, Sf9 membrane polyspecificity reagent, FACS + sequencing; frameworks hold sequencing errors
Method in brief: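 A synthetic nanobody library was expressed on Saccharomyces cerevisiae BJ5465 by galactose induction for 36–48 hours. The library was stained for 1 hour at 4 °C with 10% biotinylated, detergent-solubilized Sf9 membrane reagent and enriched with streptavidin microbeads before FACS. Low and high (top ~1%) gates were set on anti-HA fluorescence for expression and streptavidin fluorescence for reagent binding, and each polyreactivity label reflects the gate of origin.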

QVQLVESGGGLVQAGGSLRLSCAASGRIFVGNTMGWYRQAPGKERELVAAITRSGGSTYYADSAKGRFTISRDNAKNTVYLQMNSLKPEDTAVYYCAARRRGDYWGQGTQVTVSS
polyreactivity (PSR sort gate): high polyreactivity

QVQLVESGGRLVQAGGSLRLSCAASGFIFCLNAMGWYRHAQGKERELVATIDNSGGSTYADSVKGRFTISRDNAKNTVYLQMNSLKPEVTAVYYCARDDGLLSYGYWGQGTQVTVSS
polyreactivity (PSR sort gate): low polyreactivity

QVQLVESGGGLVQAGGSLRLSCAASGSIFGRNTMGWYRQAPGKERELVAAISRSGGSTYYADSVKGRFTISRDNAKNTVYLQMNSLKPEDSAVYYCAARGKYDYSGVSFNYWGQGTQVTVSS
polyreactivity (PSR sort gate): high polyreactivity

QVQLVESGGVLVQAGGSLRLSCAASGRIFHYYAMGWYRQAPGKETELVAANSSRRGSTYYADSVKGRFTISRDNAKNNFYLQMNILKAYDTAVYYCNARGWGYWVRFDYWGQGTQVTVSS
polyreactivity (PSR sort gate): high polyreactivity

QVQLVESGGGLVQAGGSLRLSCAASGIIFYKYAMGWYRQAPGKERELVAAITGRGGSTYYADSVKGRFTISRDNAKNTVYLRMNSLKPEDTAVYFCAASQRSGHPSYDYWGQGTQVTVSS
polyreactivity (PSR sort gate): high polyreactivity

QVQLVESGGGLVQAGCSLRGSCAAYRSTFIRYAMGWSRPAPGKERELVAAITWRGGSTYYADSVKGRFTISRDNEKNTVYLQMKSLKPDDSAVSFCAARDRDTRNYYWVQGTQVTVSS
polyreactivity (PSR sort gate): high polyreactivity

QVQLVESGGGLVQAGGSLRLSWAASGSTFIGYAMGWYRQAPGKERELVAAISWSGGLTYYADSVKGRFTFSRDNAKNTVYLQMNSLKPEDTAVYYCNTVPYGISVQFNYWGQGTQVTVSS
polyreactivity (PSR sort gate): high polyreactivity

QVQLVESGGGLVQAGGSLRLSCAASGRTLRRYAMGWYRQAPGKERELVAGISRNGGSTYYADSVKGRFTISRDNAKNTVYLQMNSLKPDDTAVYYCNKVAYPYSILRYGYWGLGTQVTVSS
polyreactivity (PSR sort gate): high polyreactivity

QVQLVESGGGLVQAGGSLRLSCAASGFIFSSYAMGWYRQAPGKERELVAAISRSGGRTYYADSVKGRFTISRDNAKNTVYLQMNSLKPEDTAVYYCAAKWLGTAGDDYWGQGTQVTVSS
polyreactivity (PSR sort gate): high polyreactivity

QVQLVESGGGLVQAGGSLRLSCAASGSIFRTNAMGWYRQAPGKERELVAAITGRGGSTYYADSVKGRFTISRNNAKNTVYLQMNSLKPEDTAVYYCAADTWYGYRYKYDYWGQGTQVTVSS
polyreactivity (PSR sort gate): high polyreactivity

QVQLVESGGGLVQAGGSLRLSCAASGFIFTYYAMGWYRQAPGKERELVAVISWSGGTTYYADSVKGRFTISRDNAKNTVYLQMNSLKPEDTAVYYCAAGKVSFWLVFEYDYWGQGTQVTVSS
polyreactivity (PSR sort gate): low polyreactivity

QVQLVDSGGGLVQAGGSLRLSCAASGSTFSTYPMGWYRQAPGKERELVAAISRSGGTTYYADSVKGRFTISRDNAKNTVYLQMNSLKQEETAVYYCNAVTRYTQIMDYWGQGTQVTVSS
polyreactivity (PSR sort gate): high polyreactivity

QVQLVESGGGLVQAGGSLRLSCAASGRTFYHYAMGWYRQAPGKEREFVAAISVSGGRTYYADSVKGRFTISRDNAKNTVYLQMNSLKPEDTAVYYCAARSGAQRGGGYWGQGTQVTVSS
polyreactivity (PSR sort gate): high polyreactivity

QVQLVESGGGLVQAGGSLRISCAASGFIFGPNAMGWYRQAPGKERELVAAITYSGGSTYYADSVKGRFTISRDNAKNTVYLQMNSLKPEDTAVYYCAADLYTLRYGYRYEYWGQGTQVTVSS
polyreactivity (PSR sort gate): high polyreactivity

QVQLVESGGGLVQAGGSLRLSCAASGSIFDPNAMGWYRQAPGKEREFVAAISYGGGSTTYADSVKGRFTISRDNAKNTVYLQMNSLKPEDTAVYYCAAGFYTYPTWFHPGYLFSAGDYWGQGTQVTVSS
polyreactivity (PSR sort gate): low polyreactivity

QVQLVESGGGLVQAGGSLSLSCAASGGIFFYYAMGWYRQAPGKEMELVASISYSGGSTYYADSVKGRFTISRDNAKNTVYLQMNSLKTEDTAVYYCAARTHYFPWPWYVWDYDSWGQGTQVTVSS
polyreactivity (PSR sort gate): low polyreactivity

QVQLVESGAGLVQAGGSLRLSCAASGSIFQPYAMGWYRQAPGKERELVAAISSSGGSTTYADSVKGRFTISRDNAKNTVYLQMNSLKPEDTADYYCAADSADDMGYWGQGTQVTVSS
polyreactivity (PSR sort gate): low polyreactivity
